One assay addresses BoNT/B2 (Clostridium botulinum). Description: flow cytometry, yeast-displayed scFv, soluble toxin. A general note: Flow cytometry measures light scatter and fluorescence of single cells or particles in a stream.
The target of a further assay is BoNT/B3 (Clostridium botulinum). The description is as above.
A further assay has as its target BoNT/B4 (Clostridium botulinum). The description is as above.
In assay [1] the target is T1, BoNT/B1 (Clostridium botulinum, UniProt P10844 2-1291).
T1 sequence: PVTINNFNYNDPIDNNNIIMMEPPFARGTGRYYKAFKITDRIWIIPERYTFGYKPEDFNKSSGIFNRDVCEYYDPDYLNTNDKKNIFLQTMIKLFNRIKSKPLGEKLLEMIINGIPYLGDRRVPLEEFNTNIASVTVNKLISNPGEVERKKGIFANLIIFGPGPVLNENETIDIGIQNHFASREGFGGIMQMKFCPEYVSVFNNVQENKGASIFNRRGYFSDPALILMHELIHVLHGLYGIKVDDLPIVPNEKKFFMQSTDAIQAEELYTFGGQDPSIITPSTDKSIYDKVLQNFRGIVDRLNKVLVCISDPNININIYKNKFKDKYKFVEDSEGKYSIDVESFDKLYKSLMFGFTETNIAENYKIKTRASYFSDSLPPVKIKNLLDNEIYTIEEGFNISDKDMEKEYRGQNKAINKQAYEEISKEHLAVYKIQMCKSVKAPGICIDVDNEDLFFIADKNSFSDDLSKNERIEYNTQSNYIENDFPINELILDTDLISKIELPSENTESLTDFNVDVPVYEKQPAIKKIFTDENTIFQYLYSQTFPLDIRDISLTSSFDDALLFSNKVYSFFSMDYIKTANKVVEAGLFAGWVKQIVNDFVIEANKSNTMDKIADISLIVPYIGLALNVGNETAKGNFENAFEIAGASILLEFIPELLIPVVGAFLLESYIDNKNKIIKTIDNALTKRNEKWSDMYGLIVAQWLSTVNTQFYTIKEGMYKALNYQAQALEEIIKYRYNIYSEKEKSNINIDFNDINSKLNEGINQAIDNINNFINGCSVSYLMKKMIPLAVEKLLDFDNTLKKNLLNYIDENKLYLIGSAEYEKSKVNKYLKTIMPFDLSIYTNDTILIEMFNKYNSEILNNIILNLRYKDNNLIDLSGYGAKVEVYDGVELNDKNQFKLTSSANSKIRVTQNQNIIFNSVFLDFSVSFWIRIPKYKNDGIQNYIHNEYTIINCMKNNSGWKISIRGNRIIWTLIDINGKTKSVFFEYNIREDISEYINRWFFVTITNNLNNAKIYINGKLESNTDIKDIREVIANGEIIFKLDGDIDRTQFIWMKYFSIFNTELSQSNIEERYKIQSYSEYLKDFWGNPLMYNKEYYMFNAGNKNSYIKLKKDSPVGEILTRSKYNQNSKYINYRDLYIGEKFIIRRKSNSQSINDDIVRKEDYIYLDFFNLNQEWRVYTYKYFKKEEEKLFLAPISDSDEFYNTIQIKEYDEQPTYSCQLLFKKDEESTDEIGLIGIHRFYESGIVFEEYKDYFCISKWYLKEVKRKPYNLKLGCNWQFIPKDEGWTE
Described as above.

Assay [2] concerns the target T1, BoNT/B1. Description: flow cytometry, yeast-displayed Fab, soluble toxin.
The target of assay [3] is T1, BoNT/B1. In words: flow cytometry, yeast-displayed Fab, soluble toxin. This is another data set of the same source.
For assay [4], the target named is T1, BoNT/B1. In words: yeast-displayed Fab against parental B6 scFv, flow cytometry.
For assay [5], the target named is T1, BoNT/B1.
Assay [6] concerns the target T1, BoNT/B1. Description: KinExA flow fluorimetry, IgG in solution. Background: In KinExA the mixture passes briefly over coated beads that capture the unbound partner.
For assay [7], the target named is T1, BoNT/B1. In words: flow cytometry, yeast-displayed parental scFv.
The target of assay [8] is T1, BoNT/B1. Description: flow cytometry, yeast-displayed scFv, soluble toxin. This is another data set of the same source.
The target of assay [9] is T2, BoNT/A1 (Hall hyper) (Clostridium botulinum, UniProt P0DPI0 2-1296). In words: KinExA flow fluorimetry, IgG in solution.
Assay [10] deals with T2, BoNT/A1 (Hall hyper). Description: flow cytometry, yeast-displayed Fab, soluble toxin.
In assay [11] the target is T2, BoNT/A1 (Hall hyper). Description: flow cytometry, yeast-displayed Fab against yeast-displayed scFv.
For assay [12], the target named is T2, BoNT/A1 (Hall hyper).
The target of assay [13] is T1, BoNT/B1. Description: yeast-displayed Fab against parental B11 scFv, flow cytometry.
For assay [14], the target named is T1, BoNT/B1. In words: flow cytometry, yeast-displayed Fab against yeast-displayed scFv.

The record followed here is patent publication US20150197559A1 (University of California, published 2015).

B1: 2B27 scFv (scFv, V domains shown)
VH: EVQLQESGPGLVKPSETLSVTCAVSGGSISSSNYSWAWIRQPPGKGLEWIGTMYYSGSTHYHPSLKSRVTISVDTSKSQLSLKLSSVTAADTAVYYCARRRLLGPSPYYFDYWGQGTLVTVSS
VL: QSVVTQPPSVSGAPGQRVTISCSGSSSNIGAGYDVHWYQQLPGTAPKLLIYGNNNRPSGVPDRFSGSKSGTSASLAITGLQAEDEADYYCQSYDSSLSAYVFGTGTKLTVLG
B1: the dissociation constant (Kd) (usually the free concentration of one partner at which half of the binding sites on the other are occupied at equilibrium, for simple one-to-one binding) with BoNT/B2 was determined as 0.56 nM; in the assay with BoNT/B3, 2.32 nM; with BoNT/B4, 0.77 nM; in the assay with BoNT/B1 [1], 1.9 nM.

B2: B6.1 Fab (Fab, V domains shown)
VH: QVQLVQSGAEVKKPGESLVISCKASGDKDTFTSFWIAWVRQMPGKGLEWMGIIYAGDSDTRYSPSFQGHVNISVDRSTNTAYLQWSSLKASDTAMYYCARHDSRYKYFYFGMDVWGQGTTVTVSS
VL: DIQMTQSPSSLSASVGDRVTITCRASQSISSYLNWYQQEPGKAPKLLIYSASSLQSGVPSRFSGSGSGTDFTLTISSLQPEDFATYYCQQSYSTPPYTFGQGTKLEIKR
Consider B2, for which the dissociation constant (Kd) with BoNT/B1 [2] and with BoNT/B1 [3] was 0.286 nM in each case. Further, in the assay with BoNT/B1 [4], the “KD wild type/KD matured” value came out at 9 fold.

B3: B6.1 IgG (antibody, V domains shown)
VH: QVQLVQSGAEVKKPGESLVISCKASGDKDTFTSFWIAWVRQMPGKGLEWMGIIYAGDSDTRYSPSFQGHVNISVDRSTNTAYLQWSSLKASDTAMYYCARHDSRYKYFYFGMDVWGQGTTVTVSS
VL: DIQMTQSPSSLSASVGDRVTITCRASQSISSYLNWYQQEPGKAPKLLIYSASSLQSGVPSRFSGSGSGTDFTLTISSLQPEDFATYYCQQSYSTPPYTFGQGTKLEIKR
In the case of B3, in the assay with BoNT/B1 [5], the “fold increase in affinity, IgG against yeast displayed Fab” value amounted to 42 fold. The molecule also had a Kd with BoNT/B1 [6] of 0.00682 nM.

B4: B11 scFv (scFv)
scFv: QVQLLQSAGGVVQPGRSLRLSCAASGFIFRTYGMHWVRQAPGKGLEWVAFVSSDGNNKFYSDSVKGRFTIPRDNAKNTLYLQMNSLETEDTAVYYCAKDRYPIDCSGGSCFSYGMDVWGQGTTVTVSSGGGGSGGGGSGGGGSDIVMTQSPSTLSASVGDRVTVTCRASQSINSWLAWYQQKPGKAPKLLIYEASSLESGVPSRFSGSGSGTEFTLTISSLQPDDFATYYCQQYDSYWLTFGGGTKVEIK
In the case of B4, the equilibrium dissociation constant (Kd) with BoNT/B1 [7] and in the assay with BoNT/B1 [8] was 2.62 nM throughout.

B5: 1B11 scFv (scFv)
chain: QVQLLQSAGGVVQPGRSLRLSCAASGFIFRTYGMHWVRQAPGKGLEWVAFVSSDGNNKFYSDSVKGRFTIPRDNAKNTLYLQMNSLETEDTAVYYCAKDRYPIDCSGGSCFSYGMDVWGQGTTVTVSSGGGGSGGGGSGGGGSDIVMTQSPSTLSASVGDRVTVTCRASQSINSWLAWYQQKPGKAPKLLIYEASSLESGVPSRFSGSGSGTEFTLTISSLQPDDFATYYCQQYDSYWLTFGGGTKVEIK
For the molecule B5, the Kd with BoNT/B3 is 4.43 nM; with BoNT/B1 [1] it was 2.6 nM.

B6: 2B29 scFv (scFv, V domains shown)
VH: QVQLQESGPGLVKPSETLSLTCSVSGGSINSGTYYWTWIRQHPGKGLEWIGYIYYSGTTYYNPSLKSRVSMSVDTSKNLFSLKMNSVTAADTALYYCARGNPQYDTSGSYTGLYFDFWGQGTLVTVSS
VL: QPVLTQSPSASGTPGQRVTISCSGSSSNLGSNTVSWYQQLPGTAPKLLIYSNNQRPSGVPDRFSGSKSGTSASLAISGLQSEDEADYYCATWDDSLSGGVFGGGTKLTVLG
Turning to B6, the Kd with BoNT/B2 worked out at 1.02 nM; in the assay with BoNT/B3, 1.61 nM; with BoNT/B4 it was 1.29 nM; in the assay with BoNT/B1 [1], 1.11 nM.

B7: ING1 IgG (antibody, V domains shown)
VH: QVQLQQSGGGLVQPGGSLRLSCAASGFTFSNYAMTWVRQAPGKGLEWVSSISVGGSDTYYADSVKGRFTVSRDNSKNTLLLQMNSLRAEDTAVYYCAKVRTKYCSSLSCFAGFDSWGQGTRVTVSS
VL: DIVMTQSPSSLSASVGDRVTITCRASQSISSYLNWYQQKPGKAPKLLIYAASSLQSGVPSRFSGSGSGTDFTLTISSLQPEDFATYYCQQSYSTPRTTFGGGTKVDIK
The molecule B7 came in with a Kd with BoNT/A1 (Hall hyper) [9] of 0.314 nM.

B8: ING1 Fab (Fab, V domains shown)
VH: QVQLQQSGGGLVQPGGSLRLSCAASGFTFSNYAMTWVRQAPGKGLEWVSSISVGGSDTYYADSVKGRFTVSRDNSKNTLLLQMNSLRAEDTAVYYCAKVRTKYCSSLSCFAGFDSWGQGTRVTVSS
VL: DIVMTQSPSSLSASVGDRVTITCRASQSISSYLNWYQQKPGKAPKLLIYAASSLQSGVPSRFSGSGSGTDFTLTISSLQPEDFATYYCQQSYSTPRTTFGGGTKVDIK
B8 displayed a Kd with BoNT/A1 (Hall hyper) [10] of 20.6 nM. Besides, in the assay with BoNT/A1 (Hall hyper) [11], the “fold lower affinity than the scFv” value was 3.9 fold.

B9: B6 scFv (scFv)
scFv: QVQLVQSGAEVKKPGESLVISCKASGDKDTFTSFWIAWVRQMPGKGLEWMGIIYAGDSDTRYSPSFQGHVNISVDRSTNTAYLQWSSLKASDTAMYYCARHDSRYKYFYFGMDVWGQGTTVTVSSGGGGSGGGGSGGGGSDVVMTQSPSSLSASVGDRITITCQAGQDISNFLNWYQQKPGKAPKLLIRDASNLETGVPSRFSGGGSGTHFTFTISSLHPEDIATYFCQQYDNLPYTFGQGTKLEIK
For B9, the Kd with BoNT/B1 [7] and with BoNT/B1 [8] was 2.71 nM each time.

B10: ING2 IgG (antibody, V domains shown)
VH: QVQLVQSGAEVKKPGSSVKVSCKASGDTFNRNAIAWVRQAPGQGLEWMGRIIPNLRTTHYAQKFQGRVAITADKHTNTVFMELSSLRSEDTAVYYCARDPYYYSYMDVWGKGTTVTVSS
VL: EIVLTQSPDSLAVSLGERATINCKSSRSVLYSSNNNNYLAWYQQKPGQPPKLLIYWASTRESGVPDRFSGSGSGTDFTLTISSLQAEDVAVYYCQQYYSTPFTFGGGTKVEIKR
Turning to B10, in the assay with BoNT/A1 (Hall hyper) [12], the “fold increase in affinity, IgG against parental scFv” value is 1.5 to 25 fold. For the same molecule, the Kd in the assay with BoNT/A1 (Hall hyper) [9] was found to be 0.00957 nM.

B11: B11E8 Fab (Fab, V domains shown)
VH: EVQLVQSGGGVVQPGRSLRLSCAASGFIFRTYGMHWVRQAPGKGLEWVAFVSSDGNNKFYSDSVKGRFTISRDNAKNTLYLQMNSLETEDTAMYYCAKDRYPIDCSGGSCFSYGMDVWGQGTTVTVSS
VL: EIVLTQSPATLSVSPGERATLSCRASQSVSKFLAWYQQKRGQAPRLLIYGASTRATGIPARFSGSGSGTEFALTISSLQSEDFADYYCQQYDNWPITFGQGTRLEIKR
Consider B11, for which the Kd with BoNT/B1 [2] stood at 0.081 nM. Also, the “KD wild type/KD matured” value in the assay with BoNT/B1 [13] is 32 fold.

B12: B11E8 IgG (antibody, V domains shown)
VH: EVQLVQSGGGVVQPGRSLRLSCAASGFIFRTYGMHWVRQAPGKGLEWVAFVSSDGNNKFYSDSVKGRFTISRDNAKNTLYLQMNSLETEDTAMYYCAKDRYPIDCSGGSCFSYGMDVWGQGTTVTVSS
VL: EIVLTQSPATLSVSPGERATLSCRASQSVSKFLAWYQQKRGQAPRLLIYGASTRATGIPARFSGSGSGTEFALTISSLQSEDFADYYCQQYDNWPITFGQGTRLEIKR
Turning to B12, the “fold increase in affinity, IgG against yeast displayed Fab” value with BoNT/B1 [5] amounted to 4.85 fold. Further, in the assay with BoNT/B1 [6], binding was put at a Kd of 0.00659 nM.

B13: B11 Fab (Fab, V domains shown)
VH: QVQLLQSAGGVVQPGRSLRLSCAASGFIFRTYGMHWVRQAPGKGLEWVAFVSSDGNNKFYSDSVKGRFTIPRDNAKNTLYLQMNSLETEDTAVYYCAKDRYPIDCSGGSCFSYGMDVWGQGTTVTVSS
VL: DIVMTQSPSTLSASVGDRVTVTCRASQSINSWLAWYQQKPGKAPKLLIYEASSLESGVPSRFSGSGSGTEFTLTISSLQPDDFATYYCQQYDSYWLTFGGGTKVEIKR
Consider B13, for which the “fold lower affinity than the scFv” value with BoNT/B1 [14] amounted to 2.5 fold.
